Patent US20240141061A1, “NOVEL ANTIBODY AGAINST CD55 AND USE THEREOF” (SG MEDICAL INC, priority 2021, published 2024)
Entries after “also recorded” stand apart in the source; their conditions may differ.

Experiments:
[1] = biological target: T1, CD55 on cells (BJAB, Ramos, Ramos-RR, K562, K562-IR, PC9, PC9-GR) (UniProt P08174 35-353, limits assumed); test: flow cytometry, Ramos and Ramos-RR cells stained with 10 µg/mL EP-10H and anti-human IgG Alexa Fluor 488
T1 construct: whole, on cells; Endogenous CD55 on cell lines used for flow cytometry and cell death assays; also called CD55 receptor
T1 sequence (looked up): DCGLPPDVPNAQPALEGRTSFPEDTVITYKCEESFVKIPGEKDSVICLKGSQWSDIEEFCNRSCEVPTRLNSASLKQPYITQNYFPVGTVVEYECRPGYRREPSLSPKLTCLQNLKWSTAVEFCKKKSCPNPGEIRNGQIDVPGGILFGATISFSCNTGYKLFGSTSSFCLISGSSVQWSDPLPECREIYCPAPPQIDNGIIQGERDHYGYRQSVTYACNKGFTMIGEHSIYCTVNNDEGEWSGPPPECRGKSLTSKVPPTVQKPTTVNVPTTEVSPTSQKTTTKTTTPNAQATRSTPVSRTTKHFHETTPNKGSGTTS
Procedure: 5×10⁵ Ramos or Ramos-RR cells were suspended in PBS containing or not containing 10 μg/mL of the EP-10H monoclonal antibody and cultured at 4° C. for 1 hour. The culture was centrifuged at 4,000 rpm for 5 minutes and centrifuged again at 4,000 rpm for 5 minutes after washing with 100 μL of PBS. After treating the cells with goat anti-human IgG antibody diluted to 1:100 using PBS and Alexa Fluor 488 (ThermoFisher Scientific, USA), they were incubated at 4° C. for 30 minutes in the shade. The fluorescence-stained cells were washed with PBS, suspended in 400 μL of PBS and then analyzed using Attune N×T (ThermoFisher Scientific, USA), which is a FACS analysis equipment.

[2] = biological target: T2, recombinant human CD55 (R&D Systems 2009-CD/CF) (human, UniProt P08174 35-353); test: indirect ELISA, recombinant human CD55 coated
T2 construct: Bought recombinant protein coated on ELISA plates; also called decay-accelerating factor; DAF
T2 sequence (looked up): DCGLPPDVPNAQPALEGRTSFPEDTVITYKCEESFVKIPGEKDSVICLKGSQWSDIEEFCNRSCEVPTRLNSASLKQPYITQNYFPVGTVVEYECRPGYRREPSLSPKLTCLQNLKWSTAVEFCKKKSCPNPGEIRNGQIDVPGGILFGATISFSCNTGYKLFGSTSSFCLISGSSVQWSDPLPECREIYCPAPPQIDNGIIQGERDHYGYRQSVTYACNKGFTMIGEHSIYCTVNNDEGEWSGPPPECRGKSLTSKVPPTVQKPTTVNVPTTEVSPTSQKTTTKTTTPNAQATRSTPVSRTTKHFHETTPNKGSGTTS

Ramos-RR cells = test: CDC / apoptosis by FACS in rituximab-resistant Ramos-RR cells with complement human serum; assay type: cell-based; details: anti-CD55 antibody + rituximab, method of Example 10-1
recombinant human CD55 = biological target: T3, recombinant human CD55 (Homo sapiens, UniProt P08174); test: Indirect ELISA, affinity for CD55; assay type: binding; details: full-length antibody 0.0001-10 nM on CD55 coated at 1 μg/mL
T3 construct: purchased R&D Systems 2009-CD/CF
T3 sequence (P08174 35-353): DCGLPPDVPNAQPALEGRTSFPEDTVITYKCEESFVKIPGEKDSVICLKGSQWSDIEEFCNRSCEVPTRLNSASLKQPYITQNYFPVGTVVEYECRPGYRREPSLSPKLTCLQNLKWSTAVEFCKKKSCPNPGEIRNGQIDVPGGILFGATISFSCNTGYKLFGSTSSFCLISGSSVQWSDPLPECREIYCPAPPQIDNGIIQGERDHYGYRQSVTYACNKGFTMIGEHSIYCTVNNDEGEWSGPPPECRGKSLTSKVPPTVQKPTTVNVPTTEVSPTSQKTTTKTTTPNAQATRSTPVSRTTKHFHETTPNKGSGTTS
Procedure: (§1) The binding ability of the G4-1H monoclonal antibody prepared in Example 2 for CD55 was investigated by indirect ELISA. For the indirect ELISA, recombinant human CD55 (R&D Systems, USA) diluted to 1 μg/mL in 50 μL of PBS was added to a 96-well immunoplate (Corning, USA) and then adsorbed by keeping at 4° C. overnight. After incubation for 1 hour at room temperature in a buffer containing 3% bovine serum albumin (Millipore, USA), followed by washing with a buffer containing 0.5% Tween 20 (Amresco, USA) three times, 50 μL of the serially diluted antibody (0.0001, 0.0003, 0.001, 0.003, 0.01, 0.03, 0.1, 0.3, 1, 3 and 10 nM) was treated per well. After incubation at room temperature for 2 hours for antibody-antigen binding, the antibody-antigen complex was washed three times with a buffer containing 0.5% Tween 20 (Amresco, USA). After treating with 50 μL of anti-human immunoglobulin Fc-HRP antibody (Jackson Immunoresearch, USA) diluted to 1:3,000 per well, followed by incubation at room temperature for 1 hour and washing three times with a buffer containing 0.5% Tween 20 (Amresco, USA), color development was conducted for 10 minutes by adding 50 μL of 3,3′,5,5′-tetramethylbenzidine (TMB) (ThermoFisher Scientific, USA).
The affinity of the antibodies screened in Example 6 for CD55 was investigated by indirect ELISA. The indirect ELISA was conducted in the same manner as in Example 3.
The affinity of the antibodies prepared in Example 8 for CD55 was investigated by indirect ELISA. The indirect ELISA was conducted in the same manner as in Example 3. […]

[3] = tested on: Burkitt lymphoma BJAB cells; test: CDC / apoptosis by FACS (annexin V/7-AAD) in BJAB cells with complement human serum; assay type: cell-based; details: 50 μg/mL anti-CD55 antibody + 20 μg/mL rituximab, 50% complement human serum, 1 hour
Excerpt: BJAB cells have complement resistance and this is due to the expression of CD55 (Golay, et al., Blood, 95 (12):3900-8, 2000). For this reason, they show low response to rituximab the main therapeutic mechanism of which is CDC (complement-dependent cytotoxicity). In order to confirm the possibility of improving the therapeutic effect of rituximab for Burkitt lymphoma, which is known as malignant B cell lymphoma, the apoptotic ability of co-administration with EP-10H in Burkitt lymphoma BJAB cells was investigated. For investigation of the effect of co-administration, 5×10^5 BJAB cells were cultured for 1 hour under the condition of 37° C. and 5% CO2 after treating with 100 μL of RPMI supplemented with 50% complement human serum (Sigma, USA), containing 50 μg/mL of 4-1H or EP-10H and 20 μg/mL of rituximab. Then, CDC was observed by identifying apoptotic cells with Attune N×T (ThermoFisher Scientific, USA), which is a FACS analysis equipment, using an FITC annexin V apoptosis detection kit with 7-AAD (BioLegend, USA) (FIG. 4). […] It was confirmed that this effect was more significant for EP-10H having higher affinity for CD55.
The apoptotic ability of the CD20×CD55 bispecific antibody was investigated by the method of Example 10-1. […]

K562-IR cells = test: Apoptosis by FACS in imatinib-resistant K562-IR cells; assay type: cell-based; details: 2 μM imatinib + 10 μg/mL anti-CD55 antibody, 24 hours
Procedure: Immediately thereafter, the cells were treated with 2 μM imatinib or with 2 μM imatinib and 10 μg/mL 4-1H or EP-10H diluted with 500 μL of RPMI, and then cultured under the condition of 37° C. and 5% CO2 for 24 hours. Then, apoptotic cells were analyzed with the FACS analysis equipment Attune N×T using 7-AAD and an FITC annexin V apoptosis detection kit (FIG. 6b).

PC9-GR cells = test: Apoptosis by FACS in gefitinib-resistant PC9-GR cells; assay type: cell-based; details: 5 μg/mL gefitinib + 5 μg/mL anti-CD55 antibody, 24 hours
Procedure: 24 hours later, after treating with 5 μg/mL gefitinib or 5 μg/mL gefitinib and 5 μg/mL 4-1H or EP-10H diluted with 500 μL of RPMI, the cells were cultured again for 24 hours under the condition of 37° C. and 5% CO2. Then, apoptotic cells were analyzed with the FACS analysis equipment Attune N×T using 7-AAD and an FITC annexin V apoptosis detection kit (FIG. 7b).

[4] = biological target: T2, recombinant human CD55 (R&D Systems …); test: phage ELISA, recombinant human CD55 coated, anti-M13-HRP; 4-1H phage clone as control
Procedure: 192 clones screened from the products of the third and fourth biopanning were incubated overnight at 37° C. on a 96-deep well plate after adding 100 μg/mL carbenicillin, 70 μg/mL kanamycin and VCSM13 helper phage to induce the proliferation of phages wherein the antibody was expressed. After centrifuging the culture, the supernatant containing the phage was incubated at 37° C. for 2 hours on an ELISA plate coated with recombinant human CD55 (R&D Systems 2009-CD/CF, USA). Then, the antibody binding to CD55 was identified by ELISA using HRP-conjugated anti-M13 antibody (Merck, USA) as a secondary antibody.

[5] = biological target: T2, recombinant human CD55 (R&D Systems …); test: indirect ELISA, recombinant human CD55 coated, anti-human Fc-HRP
Procedure: as §1

B1: EP-10H (antibody, V domains shown)
VH: EVQLVESGGGLVQPGGSLRLSCAASGFTFSDRGMAWVRQAPGKGLEWVSGISSSGRYTYYAPAVKGRATISRDNSKNTLYLQMNSLRAEDTAVYYCAKNAVAGGWHAAYIDAWGQGTTVTVSS
VL: SYELTQPPSVSVSPGQTASITCSGGGGSYGWYQQKPGQSPVTVIYWNDKRPSGIPERFSGSKSGNTATLTISGTQAMDEADYYCGGWDSSTYAIFGGGTKLTVL
notes: Tested as full-length IgG; Differs from G4-1H only at the H100A site (G to V); also called EP-10H monoclonal antibody; EP-10H antibody
binding result [1]: binds
binding result [2]: binds

B2: EP-10H: anti-CD55 antibody different from G4-1H only at the H100A site (G to V), VL SEQ ID NO 4, VH SEQ ID NO 19 (antibody, V domains shown)
VH: EVQLVESGGGLVQPGGSLRLSCAASGFTFSDRGMAWVRQAPGKGLEWVSGISSSGRYTYYAPAVKGRATISRDNSKNTLYLQMNSLRAEDTAVYYCAKNAVAGGWHAAYIDAWGQGTTVTVSS
VL: SYELTQPPSVSVSPGQTASITCSGGGGSYGWYQQKPGQSPVTVIYWNDKRPSGIPERFSGSKSGNTATLTISGTQAMDEADYYCGGWDSSTYAIFGGGTKLTVL
modifications: EP-1E_VH; G4-1H_VL
apoptosis by rituximab on co-administration with anti-CD55 antibody (Ramos-RR cells): increased apoptosis; also recorded: more significantly increased the apoptosis by rituximab as compared to the co-administration with 4-1H
affinity for CD55 (indirect ELISA, absorbance at 450 nm) (recombinant human CD55): comparable affinity
effect of rituximab (CDC, apoptotic cells) on co-administration with anti-CD55 antibody [3]: the effect was increased; also recorded: The increase was higher for a combination of rituximab and EP-10H than a combination of rituximab and 4-1H
apoptosis on co-administration with imatinib (K562-IR cells): apoptosis was induced; also recorded: higher apoptotic effect than the co-administration of 4-1H and imatinib
apoptosis on co-administration with gefitinib (PC9-GR cells): apoptosis was induced; also recorded: higher apoptotic effect than the co-administration of 4-1H and gefitinib

B3: EP-10H scFv clone displayed on phage (scFv, V domains shown)
VH: EVQLVESGGGLVQPGGSLRLSCAASGFTFSDRGMAWVRQAPGKGLEWVSGISSSGRYTYYAPAVKGRATISRDNSKNTLYLQMNSLRAEDTAVYYCAKNAVAGGWHAAYIDAWGQGTTVTVSS
VL: SYELTQPPSVSVSPGQTASITCSGGGGSYGWYQQKPGQSPVTVIYWNDKRPSGIPERFSGSKSGNTATLTISGTQAMDEADYYCGGWDSSTYAIFGGGTKLTVL
notes: In the screening ELISA it stood as scFv on phage (pComb3x)
binding result [4]: binds

B4: EP-1E scFv clone displayed on phage (scFv, V domains shown)
VH: EVQLVESGGGLVQPGGSLRLSCAASGFTFSDRGMAWVRQAPGKGLEWVSGISSSGRYTYYAPAVKGRATISRDNSKNTLYLQMNSLRAEDTAVYYCAKNAVAGGWHAAYIDAWGQGTTVTVSS
VL: SYELTQPPSVSVSPGQTASITCSGGGGSYGWFQQKPGQSPVTVIYWNNKRPSGIPERFSGSKSGNTATLTISGTQAMDEADYYCGGWDSSTYAIFGGGTKLTVL
notes: as for B3
binding result [4]: binds

B5: 3R-2-1H scFv clone displayed on phage (scFv, V domains shown)
VH: EVQLVESGGGLVQPGGSLRLSCVARGFTFSDRGMAWVRQAPGKGLEWVSGISSSGRYTYYAPAVKGRTTISRDNSKNTLYLQMNSLRAEDTAVYYCAKNAVAGGWHAAYIDAWGQGTTVTVSS
VL: SYELTQPPSVSVSPGQTASITCSGGGGSYGWYQQKPGQSPVTVIYWNDKRPSGIPERFSGSKSGNTATLTISGTQAMDEADYYCGGWDSSTYAIFGGGTKLTVL
notes: as for B3
binding result [4]: binds

B6: G4-1H (antibody, V domains shown)
VH: EVQLVESGGGLVQPGGSLRLSCAASGFTFSDRGMAWVRQAPGKGLEWVSGISSSGRYTYYAPAVKGRATISRDNSKNTLYLQMNSLRAEDTAVYYCAKNAGAGGWHAAYIDAWGQGTTVTVSS
VL: SYELTQPPSVSVSPGQTASITCSGGGGSYGWYQQKPGQSPVTVIYWNDKRPSGIPERFSGSKSGNTATLTISGTQAMDEADYYCGGWDSSTYAIFGGGTKLTVL
notes: Tested as complete antibody (full-length IgG); also called humanized 4-1H antibody; G4-1H monoclonal antibody
binding result [5]: binds

B7: EP-1F scFv clone displayed on phage (scFv, V domains shown)
VH: EVQLAESGGGLVQPGGSLRLSCAASGFTFSDRGMAWVRQAPGKGLEWVSGISSSGRYTYYAPAVKGRATISRDNSKNTLYLQMNSLRAEDTAVYYCAKNAVAGGWHAAYIDAWGQGTTVTVSS
VL: SYELTQPPSVSVSPGQTASITCSGGGGSYGWYQQKPGQSPVTVIYWNDKRPSGIPERFSGSKSGNTATLTISGTQAMDEADYYCGGWDSSTYAIFGGGTKLTVL
notes: as for B3
binding result [4]: binds

B8: EP-9B scFv clone displayed on phage (scFv, V domains shown)
VH: EVQLVESGGGLVQPGGSLRLSCAASGFTFSDRGMVWVRQSPGKGLEWVSGISSSGRYTYYAPAVKGRATISRDNSKNTLYLQMNNLRAEDTAVYYCAKNAVAGGWHAAYIDAWGQGTTVTVSS
VL: SYELTQPPSVSVSPGQTASITCSGGGGSYGWYQQKPGQSPVTVIYWNDKRPSGIPERFSGSKSGNTATLTISGTQAMDEADYYCGGWDSSTYAIFGGGTKLTVL
notes: as for B3
binding result [4]: binds
